Measurements taken from the DeepSol protein solubility set.

Assay: soluble on expression in E. coli; label from the status in PepcDB or PDB records

Sequence	soluble on expression in E. coli
MKAAAREEAKNIKLLETTEEDKQKNFLFLRLWDRNMDIAMGWKGAQAMQFGQPLVFDMAYENYMKRKELQNTVSQLLESEGWNRRNVDPFHIYFCNLKIDGALHRELVKRYQEKWDKLLLTSTEKSHVDLFPKDSIIYLTADSPNVMTTFRHDKVYVIGSFVDKSMQPGTSLAKAKRLNLATECLPLDKYLQWEIGNKNLTLDQMIRILLCLKNNGNWQEALQFVPKRKHTGFLEISQHSQEFINRLKKAKT	not soluble
MKAARQQAIVDLLINHKSLTTEALATRLNVSKETIRRDLSELQTQGKVLRNHGRAKYIHRENQDSGDPFHIRLKSHYAHKADIAREALAWIEEGMTIALDASSTCWYLARQLPDIPIQVFTNSHPICQELGKRERIALISSGGQLERKYGCYVNPSLISQLKSLDIDLFIFSCEGIDSGGDLWDSNAINADFKSILLRRASQSLLLIDKSKFNRSGEARIGHLDDVTHIVSDAPQSLEHHHHHH	soluble
MKALLPGLYLLPVPIPYPLKTVNLYLLQGAGEVALVDTALGTRAARGALELHLAELGLCFQDVKTILLTHHHPDHYGLSGFFEGLGARVFLHEEEFARGHRFWREPEAFAEASWRLFLDHGTPEGALQGIRETVEKTRERVHPPQNPLPLRDGEALEVAGKRLRVLWTPGHADGHAAFYLEEEGVLLAGDALLEKVSPNVGLWAYTRENPLKDFLRSLDRLADLGARVAYAGHFGPIADVRQRAEELKAHHQARLEALLALLDGPKTAWELSLHLFPQELDPAGRRFAFAETLAHLEYLREEGAVGRGGPPYRYFRR	soluble
MKALLSIEMDMQVPFHDVDSMGITWHGNYLRYFEVARCKLLDELGYNYRQMRASNYAWPIIDVQIKYVKPSTFEQHITVRAELVEWENRLKINYQIRDTATGERITKGYTIQAAVDMTSLEHHHHHH	not soluble
MKALRGMISEKGGWNLTVNNDNNTVVSSGGALDLSSGSKNLKIVKDGKKNNVTFDVARDLTLKSIKLDGVTLNETGLFIANGPQITASGINAGSQKITGVAEGTDANDAVNFGQLKKIETEVKEQVAASGFVKQDSDTKYLTIGKDTDGDTINIANNKSDKRT	soluble
MKAMNKVWVIGDASVDLVPEKQNSYLKCPGGASANVGVCVARLGGECGFIGCLGDDDAGRFLRQVFQDNGVDVTFLRLDADLTSAVLIVNLTADGERSFTYLVHPGADTYVSPQDLPPFRQYEWFYFSSIGLTDRPAREACLEGARRMREAGGYVLFDVNLRSKMWGNTDEIPELIARSAALASICKVSADELCQLSGASHWQDARYYLRDLGCDTTIISLGADGALLITAEGEFHFPAPRVDVVDTTGAGDAFVGGLLFTLSRANCWDHALLAEAISNANACGAMAVTAKGAMTALPFPDQLNTFLSSHSLAQAMTVK	not soluble
MKASIKGKYDTDKTSGIGSLAFNAGDIKLRATMTDATLVAGPTLTGLALAVEKPGSFIVEYNVPKKDVRFQFMNTVRIAEKPLNLTYIHSRADNRTIVDGSLVIDSANKLSANHMVGTNNCKIKYTYAHGGLATFEPCYDLAKNTWDFAVSRRFYSGDNVRATYQTSSKLLGMEWSRNNKASGFKVCASVNLADELKTPKLTAETTWNLEM	soluble
MKAWEIARKPRVVVYPGDPLTYVRAMMRREEEPIAVVVVESEKSEKVVGYITWNEVIQVTSHYSHLRAKDAMLDYPVAFKDDDIGDVYKRMVEEKVYAIPVLESRDNPNLVGVVTVADIVRALRRAGFK	not soluble
MKAYIQVKQVGKRKCSIEKMPIDFPTPPASVQELIEAVVCWQVKEYNERLQQSEMLKYLTCEEMEDKAAAGKVGFEANYNGRPAVETEAIINALQSYEDGIFRIFLDDAELGELSSSVQLKEESTLTFIRLAMLSGRLW	not soluble
MKAYRIHVQGIVQAVGFRPFVYRIAHAHNLKGFVRNLGDAGVEIVIEGNEEDIEGFLVDLYKKKPPIARIDKVEKEEIPPQGFDRFYIEKSSTEKKGEGDSIIPPDIAICDDCLKELFDPTNKRYMYPFIVCTNCGPRFTIIEDLPYDRENTAMREFPMCEFCRSEYEDPLNRRYHAEPVACPTCGPSYRLYTNDGNEIVGDPLRKAAKLIDKGYIVAIKGIGGIHLACDATREDVVVELRKRIFRPQKPFAIMAKDLETIRTFAYVSPEEEEELTSYRRPIVALKKKEPFPLPENLAPGLHTIGVMLPYAGTHYILFHWSETPVYVMTSANFPGMPMIKDNEEAFEKLRDVADYLLLHNRRIPNRADDSVVRFVDGRRAVIRRSRGFVPLGIEIPFEYKGLAVGAGLMNAFGVSKSGKVYPSQYIGDTSKIEVLEFMRDAIRHFFKILRIDSLDLVVADLHPSYNTTKLGMEIAEEFGAEFLQVQHHYAHVASVMAEHNLEEVVGIALDGVGYGTDGKTWGGEVIYLGYEDVERLAHIEYYPLPGGDLASYYPLRALIGILSLNHDFEEVEKIIREFCPNAIKSLKYGETEFKVILRQLSSGINVAYASSTGRVLDAFSVLLNVSYRRHYEGEPAMKLESFAYQGKNDLNLTVPIEGEEIKVSELFEEVLELMGKVNPRDIAYSVHLALARAFAEVSVEKAKEFGVKTVVLGGGVGYNELIVKTIRKIVEGRELRFLTTYEVPRGDNGINVGQAFLGGLYLEGYLNREDLSI	soluble
MKCKFCSREAYIKIHYPKMYLCEEHFKEYFERKVSRTIERYKLLTKDERILVAVSGGKDSAVTAYVLKKLGYNIECLHINLGISGYSEKSEEYAKKQCKLIGAPLHIVRIKEILGYGIGEVKTRRPPCSYCGLTKRYIMNKFAYDNGFDAIATGHNLDDEASFLLNNILHWNTEYLAKGGPILPQQGKFIKKVKPLYEVTEREVVAYALAVGLEYIVEECPYARGATTLDMKGVLNELEEKRPGTKFNFVRGYLKKKKLFEPEIKEKEIKECKICRMPSSGDICAFCKFWGLKKEINFKVSSTDEEPFGP	soluble
MKDAKGIDKQWVILNELASKISKVRPLPEDVYSKLRIANNIITYYLLDEHADFEVLRDAEKEISKIQVILFGLADQDVSKEYLIKMGQALRNEIDLEFPLKQTAFNTEVKRKKGSETIRIKMPVEVQIEVLGELSEHNGVIFELSQDDEQKILVEGVKERITSALKDFSVIWKFQDNLEHHHHHH	not soluble
MKDAQLNTLCQRHQAVLINSASNSITVAVVDAPSHALLDALHFATQKQIDIVCWTRQQMENHRHKPDQAPSANAAKGGETAAQLLNQTLRSAMAKRASDIHLEPGASRYRIRLRIDGVLHILQDIAKETGLALTARLKVLGNLDIAEHRLPQDGQFTVDLAGDSISFRIATLPCKEGEKVVLRLLHQVEQTLDLDTLGMYGAQLTAFRQALQQPQGLVLVTGPTGSGKTVTLYSALQTRNTPGINLCSVEDPIEIPLDGINQTQIHPRAGLTFQNVLRALLRQDPDIIMVGEIRDGDTAEIAIKAAQTGHLVLSTLHTNSTSETLIRLQQMGVARWMISSALTLVVAQRLVRKLCPHCKQRLSDPVVLSPNLWPSAIPRWQASGCQHCYHGFYGRTALFEVLTVTPALRQLIASGASAQALEAHLQQTGTGTLFENGCRAVEQGMTSFEEILCVLGMPHER	not soluble
MKEETFYLVREDVLPDAMRKTLEVKKLLDRKKADSVADAVQKVDLSRSAFYKYRDAVFPFYTMVKEQIITLFFHLEDRSGALSQLLQAVADSGSNVLSIHQTIPLQGRANVTLSISTSAMEEDIHTLMNKLRKFDFVEKVEILGSGA	not soluble
MKEIWYVRHGETEWNAQRRFQGHLDIPLSPVGIGQAFRLAERLSRSRISFDRLYASDLRRARQTAEPLAQVLGLPIATTPLLREIHVGELAGLTRAEAEARFPSFLAEAAEDPWNARRPGGESMADLARRLQAFLEEVPPGRHLVVTHGGVIRAALKLALDLAGDTWRRFHIQNTSITRILYPENAVLTVADAAHLEVWADWLSDEDLKG	soluble
MKELDKIDFRILKILQQNARIPMTELAEKVGLSTTPVTERVRRLEREHYISGYHAHLNPHLLGKPLLVFVELKLQSKSGNIFEDFKKEVLKIPQIMECHLVSGEYDYLIKVRLPDMSAYRDMLGNILLQLPAASESRSYVVMEEVKENPVLDLD	soluble
MKELKQAEQIRTWVQSILTDESSGHDWHHVSRVADLAAYIGEKEKADLFIVETAALVHDLIDVKLPDTVRLSVSEVYDQLVFFGVGKENADRVIHIITRMSFRDRGKLAKEPLSIEGKAVQDADRLDAIGAVGIARAFMFAGAKGHGLYGDEQSAYAHFFHKLLRLKDMMNTDTARELAEERHNFMLQFVRQLEKDIPGIDAETS	not soluble
MKEVKVGIGDYAVGKGNGIISTYGLGSCVGITLYDRVTKVGGLLHALLPEAARYGHRGNPAKYVDTGLQLLLKEVIKLGASKFRLEAKLFGGAQMFDNIRSEELKIGEKNVQVAKRELRKLGIRLVAEDTGGKGGRTIYLDLSTGKVRMRKVTEGKVIEKVY	soluble
MKEYLKEVLDVSGEKFFILNPMIPNMDSNKPNFIIGKKSLIYTGKFAKDWNSDEILEAFAKIVRTNPDFRLIVAGDKFNLHPENPNFKEEVTQKLKTYKNVDWVGGVTREEVQKLIQQSDIGIGWRNNSLNDSLELSTKALEYGALGKPVILNRTPMHERLFGSEYPFYANSEEEFISCITQSLTNDDIYASAAETVYKVCTDFTFAKTYERISPFLWEAKDKRIRLVFAGHDLKFAKMFIDRFASRTRYEVEIDQWKGHSVNDESHSTNCLNWADVIFCEWGLGNAVWYSHRVRQGQTLIVRMHLQERETKHYLKFNYDAIDSIIAISPYIRDEFVNNCGIPSDNMVMIYNAVNCKKFDLEKYEDTQFNLGITGICPSRKRLDRAIDIFEKLKEKDSRYTLHIKGQLPTHYPWLWKKEEEKKYYEQVFKRINSSKWRDSIIFDGFGNDMDTWFQKIGYILSTSDFESFHLAPAEGMASGAFPIIIRWEGCHTIYDEDFIFENVDEAATFILKRNQVMGPNDIDVRTYVRNRFDIEKIFGDWEELIARLR	not soluble
MKFFVFALVLALMISMISADSHEKRHHGYRRKFHEKHHSHREFPFYGDYGSNYLYDNLEHHHHHH	not soluble
MKFGGVLLIVKDINKSKKFYEDVMEQKITLDLGEHVSFENGFGLQSNYKAIIGYDLPIYQQSNNFQLYFEVNDIKQWESKINRIGNIEFLHYIKEYPWGQRTFRFYDFDKNIIEISESMESVIKRLLKQGLALEEISKRTMYPVEFITQFQQLLEHHHHHH	soluble
MKFLQKEELRTLLQSLDLQSGINNDWFLLLIAKTGMRYAEALALTPSDFDWVNATVTIDKSWDYKTHRGFKKTKSTASDREIAIDWQIVGQFKPLIQDLPANDPIFIEKTERGTYKKQYNSTMNNYLEAKCKTLTITVISLHALRHTHASVLLAEGVSIHTISARLGHADVGVTQEIYAHVLDELQKKDDQKMMSVLMQIALEHHHHHH	soluble
MKFLYFGDPHIRGTNPRNRKDNYKEALIAKLREIFALAKYKGVTAIIQPGDTFDRPEVTTSVLLEFAKVLKESPVPIYTTAGNHDIYGYNLATYERTSLRVLELIVPQLTVINDPGQAQMFHQDGNHVQLTFTPYSDQIDKAGYGYSPEIIEDYESTKIHIAHGMLLDHDPPFDRYTKVQDVKTEADLVLCGHDHTGFGIYERSDGKVFVNDGSLTRLSASEAEMRRQISVLLIDVKAPRVFDLERIPLQSAKPGEEVLDRSRIEAEKKRAYAMEEFASLIQTETGEDVLVDINTIVESIAKTQSINSDVVEIALTKIAEAKEGLRT	not soluble
